# Experimental data reported in patent US10174336B2, “Herbicide-tolerant plants” (BASF Agrochemical Products B.V., priority 2010, dated 2019).
# B1: OsCYP72A15: rice cytochrome P450 CYP72A15 gene/polypeptide, amino acid sequence SEQ ID NO:7 (protein, listed as Oryza sativa)
# chain: MLMMLGAASQWILAAAAAAAVAALLWLAVSTLEWAWWTPRRLERALRAQGIRGNRYRLFTGDVPENVRLNREARKKPLPLGCHDIIPRVLPMFSKAVEEHGKPSFTWFGPTPRVMISDPESIREVMSNKFGHYGKPKPTRLGKLLASGVVSYEGEKWAKHRRILNPAFHHEKIKRMLPVFSNCCTEMVTRWENSMSIEGMSEVDVWPEFQNLTGDVISKTAFGSSYEEGRRIFQLQAESAERIIQAFRTIFIPGYWFLPTKNNRRLREIEREVSKLLRGIIGKRERAIKNGETSNGDLLGLLVESNMRESNGKAELGMTTDEIIEECKLFYFAGMETTSVLLTWTLIVLSMHPEWQERAREEVLHHFGRTTPDYDSLSRLKIVTMILYEVLRLYPPVVFLTRRTYKEMELGGIKYPAEVTLMLPILFIHHDPDIWGKDAGEFNPGRFADGISNATKYQTSFFPFGWGPRICIGQNFALLEAKMAICTILQRFSFELSPSYIHAPFTVITLHPQHGAQIKLKKI
# B2: OsICYP81 A: CYP450 gene/polypeptide OsICYP81A6, amino acid sequence SEQ ID NO:29 (protein, listed as Oryza sativa)
# chain: MDNAYIIAILSVAILFLLHYYLLGRGNGGAARLPPGPPAVPILGHLHLVKKPMHATMSRLAERYGPVFSLRLGSRRAVVVSSPGCARECFTEHDVTFANRPRFESQLLVSFNGAALATASYGAHWRNLRRIVAVQLLSAHRVGLMSGLIAGEVRAMVRRMYRAAAASPAGAARIQLKRRLFEVSLSVLMETIAHTKATRPETDPDTDMSVEAQEFKQVVDEIIPHIGAANLWDYLPALRWFDVFGVRRKILAAVSRRDAFLRRLIDAERRRLDDGDEGEKKSMIAVLLTLQKTEPEVYTDNMITALTANLFGAGTETTSTTSEWAMSLLLNHPDTLKKAQAEIDASVGNSRLITADDVTRLGYLQCIVRETLRLYPAAPMLLPHESSADCKVGGYNIPRGSMLLINAYAIHRDPAVWEEPEKFMPERFEDGGCDGNLLMPFGMGRRRCPGETLALRTVGLVLGTLIQCFDWERVDGVEVDMTEGGGLTIPKVVPLEAMCRPRDAMGGVLRELV
# B3: ZmNSF1: corn NSF1 cytochrome P450 gene/polypeptide, amino acid sequence SEQ ID NO:3 (protein)
# chain: MDKAYIAALSAAALFLLHYLLGRRAGGEGKAKAKGSRRRLPPSPPAIPFLGHLHLVKAPFHGALARLAARHGPVFSMRLGTRRAVVVSSPDCARECFTEHDVNFANRPLFPSMRLASFDGAMLSVSSYGPYWRNLRRVAAVQLLSAHRVGCMAPAIEAQVRAMVRRMDRAAAAGGGGVARVQLKRRLFELSLSVLMETIAHTKTSRAEADADSDMSTEAHEFKQIVDELVPYIGTANRWDYLPVLRWFDVFGVRNKILDAVGRRDAFLGRLIDGERRRLDAGDESESKSMIAVLLTLQKSEPEVYTDTVITALCANLFGAGTETTSTTTEWAMSLLLNHREALKKAQAEIDAAVGTSRLVTADDVPHLTYLQCIVDETLRLHPAAPLLLPHESAADCTVGGYDVPRGTMLLVNVHAVHRDPAVWEDPDRFVPERFEGAGGKAEGRLLMPFGMGRRKCPGETLALRTVGLVLATLLQCFDWDTVDGAQVDMKASGGLTMPRAVPLEAMCRPRTAMRGVLKRL
# modifications: Zea mays
# B4: OsjCYP81A6: rice cytochrome P450 CYP81A6 gene/polypeptide, amino acid sequence SEQ ID NO:1 (protein, listed as Oryza sativa)
# chain: MAFLGWAVDIARDSGASSSVVLTCDGYGSALYFSPWDSVPLPATASPDDGFLLPRFPDVCVQRSQFTNHLAPANGTGGGGSRTGVKEEASEVLSWPPTSKQSVRRLEVAEHWYRLYKTDNQRLSPDSQQVSVLAESHCDLASGNWKEISIHHKKMPSSTTTKTTTPSRDAWIVSARSDPFHLLLEAQAPLGIKADALSQIAAVHQSHRNTSHIRELSLAMDNAYIIAILSVAILFLLHYYLLGRGNGGAARLPPGPPAVPILGHLHLVKKPMHATMSRLAERYGPVFSLRLGSRRAVVVSSPGCARECFTEHDVTFANRPRFESQLLVSFNGAALATASYGAHWRNLRRIVAVQLLSAHRVGLMSGLIAGEVRAMVRRMYRAAAASPAGAARIQLKRRLFEVSLSVLMETIAHTKATRPETDPDTDMSVEAQEFKQVVDEIIPHIGAANLWDYLPALRWFDVFGVRRKILAAVSRRDAFLRRLIDAERRRLDDGDEGEKKSMIAVLLTLQKTEPEVYTDNMITALTANLFGAGTETTSTTSEWAMSLLLNHPDTLKKAQAEIDASVGNSRLITADDVTRLGYLQCIVRETLRLYPAAPMLLPHESSADCKVGGYNIPRGSMLLINAYAIHRDPAVWEEPEKFMPERFEDGGCDGNLLMPFGMGRRRCPGETLALRTVGLVLGTLIQCFDWERVDGVEVDMTEGGGLTIPKVVPLEAMCRPRDAMGGVLRELV
# Experiments:
# [1] = test system: Sb01g007420.1; assay: Yeast expression system, saflufenacil metabolism (LC/MS/MS); assay type: in vitro ADME, sorghum; conditions: yeast cells expressing Sb01g007420.1, 24 h incubation
# [2] = test system: OsICYP81A6; assay: as above; assay type: in vitro ADME, rice
# Excerpt: Rice cytochrome P450 81A6 was cloned into pESC-His yeast expression vector (Stratagene) using BamHI and SalI. Constructs were transformed into YPH500 yeast strain (Stratagene) using a Yeast Maker Transformation System from Clontech. Positive clones were selected on SD-agar plates (0.7% yeast nitrogen base without amino acids, 2% glucose, 0.13% amino acid drop-out without histidine; plates solidified with 2% agar). Bioconversion of substrates was directly assayed in yeast cells expressing the respective cytochrome P450 gene. Cells were induced in SG-His medium (same composition as SD but with galactose instead of glucose) for 18-24 h (Pompon et al., Methods in Enzymology 272:51-64 (1996); Urban et al., Eur. J. Biochem. 222:[…] (1994)). Afterwards, the BAS800H substrate was added and samples were incubated for an additional 24 h. Samples were analyzed by LC/MS/MS.
# [3] = test system: maize, rice, and soybean transgenic systems; assay: Saflufenacil tolerance in transgenic plant systems (FIG. 3 legend); assay type: in vivo; conditions: in one or more transgenic plant systems
# [4] = test system: transgenic maize plants; assay: Maize whole plant saflufenacil spray test (T0 and T1); assay type: in vivo; conditions: 240 g ai/ha saflufenacil + 1% MSO at 2-4 leaf stage; rated 7 and 14 days after application
# Protocol: Immature Embryo Transformation: Immature embryos were transformed according to the procedure outlined in WO2006/136596 to Peng et al. The exception was that a proportion of the embryos—25 in most cases—were placed on media containing saflufenacil and kept in the light for direct selection. The remaining embryos in each experiment were selected on Pursuit as described. Plants were tested utilizing Taqman analysis with the target being the nos terminator which is present in all constructs. Healthy looking plants were sent to the greenhouse for hardening out and subsequent spray testing. As with the BMS cells, RCB958 was utilized as a control both for transformation, saflufenacil selection, and for spray testing.
# A total of 82 transgenic maize plants (2 constructs of interest and 1 control construct) were delivered to the greenhouse in tissue culture. The plants were individually transplanted into MetroMix 360 soil in 4″ pots. […]
# Sixteen vectors harboring different P450 genes were tested for the ability to increase tolerance to saflufenacil in T0 maize plants. […] Injury rating was evaluated 7 and 14 days after application. FIG. 5 indicates the number of plants from each segregating event that were evaluated and scored for herbicidal injury.
# [5] = test system: T0 soybean cuttings; assay: Soybean T0 cuttings saflufenacil spray test; assay type: in vivo, Soybean cv Williams 82; conditions: 0, 25, or 50 g ai/ha saflufenacil + 1% MSO; evaluated 7 days after treatment
# Protocol: Soybean cv Williams 82 was transformed as previously described by Siminszky et al., Phytochem Rev. 5:445-458 (2006). After regeneration, transformants were transplanted to soil in small pots, placed in growth chambers (16 hr day/8 hr night; 25° C. day/23° C. night; 65% relative humidity; 130-150 μE m^−2 s^−1) and subsequently tested for the presence of the T-DNA via Taqman analysis. After a few weeks, healthy, transgenic positive, single copy events were transplanted to larger pots and allowed to grow in the growth chamber. An optimal shoot for cutting was about 3-4″ tall, with at least two nodes present. Each cutting was taken from the original transformant (mother plant) and dipped into rooting hormone powder (indole-3-butyric acid, IBA). The cutting was then placed in oasis wedges inside a bio-dome. The mother plant was taken to maturity in the greenhouse and harvested for seed. Wild type cuttings were also taken simultaneously to serve as negative controls. The cuttings were kept in the bio-dome for 5-7 days and then transplanted to 3″ pots and then acclimated in the growth chamber for two more days. Subsequently, the cuttings were transferred to the greenhouse, acclimated for approximately 4 days, and then subjected to spray tests containing 0, 25, and 50 g ai/ha saflufenacil plus 1% MSO. Herbicide injury evaluations were taken at 7 days after treatment.
Molecule,conferred tolerance to saflufenacil [3],tolerance of segregating T1 maize events (reduced injury scores vs J553 wild type) [4],level of tolerance to saflufenacil in T0 soybean cuttings [5],other results
"CC(C)N(C)S(=O)(=O)NC(=O)c1cc(-n2c(=O)cc(C(F)(F)F)n(C)c2=O)c(F)cc1Cl [BAS800H, 2-chloro-5-[3,6-dihydro-3-methyl-2,6-dioxo-4-(trifluoromethyl)-1(2H)-pyrimidinyl]-4-fluoro-N-[[methyl(1-methylethyl)amino]sulfonyl]benzamide]",,,,"degradation of BAS800H [1]: catalyzed degradation; initial content of BAS800H converted into several metabolites ([2]; after 24 h incubation in P450-expressing yeast, enzyme not specified (OsICYP81A6 and Sb01g007420.1 named)): 10%; degradation of BAS800H ([2]; yeast cells expressing OsICYP81A6, 24 h incubation): catalyzed degradation"
B1,conferred tolerance,,,
B2,,increased tolerance,,
B3,conferred tolerance,,greatest level of tolerance,
B4,,increased tolerance,greatest level of tolerance,
